Source: doi:10.1101/2021.09.24.461759

Biological target: pre-fusion, protease-resistant, trimeric transmembrane (TM)-deleted spike (S) glycoprotein from SARS-CoV-2 (SARS-CoV-2 (Wuhan-Hu-1) | not stated)
Assay: SEC + other: SDS-PAGE

pre-fusion, protease-resistant, trimeric transmembrane (TM)-deleted spike (S) glycoprotein from SARS-CoV-2
stoichiometry N: 3
